# US20250026838A1
# What was measured:
# [1] = target: Human Galectin-3 (Gal3) protein (human) (UniProt P17931); test: competition ELISA, hGal3 coated; competitor: biotinylated aggregated alpha-synuclein
# [2] = target: Human Galectin-3 (Gal3) protein (human) (UniProt P17931); test: competition ELISA, hGal3 coated; competitor: biotinylated aggregated phospho-tau
# Chain of Human Galectin-3 (Gal3) protein (human) (P17931 whole entry): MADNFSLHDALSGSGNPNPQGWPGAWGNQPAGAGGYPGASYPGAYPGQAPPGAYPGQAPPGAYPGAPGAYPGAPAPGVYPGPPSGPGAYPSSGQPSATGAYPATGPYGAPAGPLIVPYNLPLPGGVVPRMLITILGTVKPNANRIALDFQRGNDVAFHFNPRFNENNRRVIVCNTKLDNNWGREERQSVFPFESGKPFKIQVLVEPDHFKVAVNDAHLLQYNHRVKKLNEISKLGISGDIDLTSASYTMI
Binder,blocking efficacy [1] [%],blocking efficacy [2] [%]
"2D10-VH0-VL0-hIgG4(S228P) (antibody, V domains shown) VH: QFQLQQSGPELVKPGASVKISCKASGYTFTDYYINWVKQRPGQGLEWIGWIYPGSNDTKYNEKFKGKATLTVDTSSSTAYMQLGSLTSEDSAVYFCANYFGCSGWFFDVWGTGTTVTVSS VL: DIVMTQAAFSNPVTLGTSASISCRSSKSLLHSDGITYLYWYLQRPGQSPQLLIYRMSNLASGVPDRFSGSGSGTDFTLRISRVEAEDVGVYYCAQMIEFPLTFGAGTILELKR",> 70,> 70
"846.1B2-hIgG4(S228P) (antibody, V domains shown) VH: QIQLVQSGPELKKPGETVKISCKASGYTFTNYGMNWVKQAPGKGLKWMGWINTYTGEPSYADDFKGRFAFSLETSASTAYLQINNLKNEDMATYFCARWGGYAGDYYAMDFWGQGTSVTVSS VL: NIWLTQSPSSLAVSAGEMVTMTCKSSQSVLYSSNQKNYLAWYQQKPGQSPKLLIYWASTRESGVPDRFTGSGSGTDFSLTISSVQAEDLAVYYCHQYLSSLTFGAGTKLELKR",> 70,> 70
"846.1H5-hIgG4(S228P) (antibody, V domains shown) VH: EVQLLESGGGLVKPGGSLKLSCAASGFTFSSYAMSWVRQTPEKRLEWVASISSGGDTYYPDSVKGRFTISRDNARNILYLQMSSLRSEDTAMYYCASYGNSLFDYWGQGTTLTVSS VL: DVVMTQTPLSLPVSLGDQASISCRSSQSLVHNSGNTYLHWYLQRPGQSPNLLIYKVSNRFSGVPDRFSGSGSGTDFTLKISRVAAEDLGVYFCSQSTHVPPTFGGGTKLEIKR",> 70,–
